Results: PMC11931385, “Structural and functional analysis of cancer-associated missense variants in the retinoblastoma protein pocket domain” (The Journal of Biological Chemistry, 2025)
Where a chain is given by its changes, count along the chain named. Numbers in names are those of the source. No end group written: not given here. TMR = tetramethyl rhodamine dye

T1: Rb^P S474N (human, UniProt P06400 380-788, S474N)
T1 construct: also called variant 12
T1 sequence (looked up): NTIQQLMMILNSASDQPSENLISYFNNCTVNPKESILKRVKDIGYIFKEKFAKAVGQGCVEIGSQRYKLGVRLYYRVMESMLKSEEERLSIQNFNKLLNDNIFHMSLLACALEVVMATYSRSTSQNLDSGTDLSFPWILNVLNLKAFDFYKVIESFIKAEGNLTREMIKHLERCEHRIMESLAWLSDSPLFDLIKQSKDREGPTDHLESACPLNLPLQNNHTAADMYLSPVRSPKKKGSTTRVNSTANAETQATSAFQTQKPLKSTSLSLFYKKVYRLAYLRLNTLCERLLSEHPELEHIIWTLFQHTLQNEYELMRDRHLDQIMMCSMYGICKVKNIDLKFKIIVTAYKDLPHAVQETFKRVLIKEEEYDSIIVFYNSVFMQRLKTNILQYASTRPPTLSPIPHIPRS

T2: Rb^P A490S (human, UniProt P06400 380-788, A490S)
T2 construct: also called variant 15
T2 sequence (looked up): T1 sequence (looked up) with N95S, A111S

T3: Rb^P R621P (human, UniProt P06400 380-788, R621P)
T3 construct: also called variant 43
T3 sequence (looked up): T1 sequence (looked up) with N95S, R242P

T4: Rb^P R656Q (human, UniProt P06400 380-788, R656Q)
T4 construct: also called variant 48
T4 sequence (looked up): T1 sequence (looked up) with N95S, R277Q

T5: Rb^P S671F (human, UniProt P06400 380-788, S671F)
T5 construct: also called variant 53
T5 sequence (looked up): T1 sequence (looked up) with N95S, S292F

B1: TMR-E2F1^TD, peptide of the E2F1 transactivation domain (peptide)
peptide: {TMR}-GEGIRDLFDCDFGDLTPLD
notes: also called E2F^TD; source: synthetic peptide, bought: GenScript
B2: TMR-E7^LxCxE, LxCxE peptide of the E7 oncoprotein from HPV (peptide)
peptide: DLYCYEQLN
modifications: also: TMR label, position not given here
notes: source: synthetic peptide, bought: GenScript

Experiments:
Experiment in all cases: fluorescence polarisation; 25 °C; unlabeled Rb^P titrated against 1.5 nM TMR-E2F1^TD or 7.5 nM TMR-E7^LxCxE; 25 mM Tris pH 8.0, 200 mM NaCl, 1 mM DTT, 0.1% Tween-20; 2 min incubation; quadratic fit; apparent Kd for the variants, Kd for WT
Conditions in all cases: both partners purified
[1] = molecular target: T1, Rb^P S474N
[2] = molecular target: T2, Rb^P A490S
[3] = molecular target: T3, Rb^P R621P
[4] = molecular target: T4, Rb^P R656Q
[5] = molecular target: T5, Rb^P S671F

| Binder | Kd [1] [nM] | Kd [2] [nM] | Kd [3] [nM] | Kd [4] [nM] | Kd [5] [nM] |
| --- | --- | --- | --- | --- | --- |
| B1 | 19 | 17 | 40 | 183 | 24 |
| B2 | 8 | 7 | 12 | 6 | 9 |
